According to article PMC12463286:
Substitutions are numbered along the chain they refer to.

How the values were obtained:
Experiment in all cases: EMSA
Conditions in all cases: pH 7.5, 30 min at 37 C
[1] = biological target: T1, FadR (Streptococcus suis serotype 2 strain ZY05719) (UniProt A0A0H3MZ02)
T1 sequence: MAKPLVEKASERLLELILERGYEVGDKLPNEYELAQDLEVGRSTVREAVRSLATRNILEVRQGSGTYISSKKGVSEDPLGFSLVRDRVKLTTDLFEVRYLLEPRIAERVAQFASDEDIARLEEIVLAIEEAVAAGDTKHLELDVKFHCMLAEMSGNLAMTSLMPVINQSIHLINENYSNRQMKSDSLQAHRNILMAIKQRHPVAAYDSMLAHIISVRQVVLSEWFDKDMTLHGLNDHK

[2] = biological target: T2, FadR-T230A T230A (Streptococcus suis serotype 2 strain ZY05719) (UniProt A0A0H3MZ02)
T2 sequence: T1 sequence with T230A

[3] = biological target: T3, FadR-T230E T230E (Streptococcus suis serotype 2 strain ZY05719) (UniProt A0A0H3MZ02)
T3 sequence: T1 sequence with T230E

Measured: binding

CTGTCCTCCTTGTAGATTTATACATGATGGGAAACGAGGAGGACCGTACGCTTTCCTGCCTCTCATTTCCTCTTTACATCCATAGTTTAACAGAGCAAAAAAACAAAAACTTGAAAACGCTCACATTTATTTTGAGAAATTCTTCACATTTTTAACCTTATTTATAAATAATTATCGATTATATCATCTAAATTCTGCATAATTCTTTCCGTTATATCATTATATGAATTTTTATTTTTTTATAAAAAACAGAAACTTCAATGAGTTTCTGTCAAATTTTCTAAGAAATAATCAATATCT (double strand) [adi promoter]
binds: all assays above
